Reference: patent US7824885B2, “Engineered proteases for affinity purification and processing of fusion proteins” (University of Maryland, College Park, priority 2003, dated 2010)

Key:
Assay type in all cases: biochemical
fusion protein pR58-GB = assay: kinetics of fusion protein pR58-GB cleavage by D32 mutants, anion triggered; conditions: 0.1M KPi; for Rate vs. [Cl]: pH 8.8, 23 C; for Rate vs. pH: 23 C
Description: Particularly advantageous are processing proteases whose activity is triggered on demand. Ions which have been useful as triggers are OH— (pH), Cl— and F—. The tables summarize cleavage rates of various D32 mutants as a function of specific anion.
Thus, S189 can be trigger to increase cleavage rates if desired and this can be very advantageous when required in a purification process. Once the fusion protein is bonded to the subtilisin variant to form a binding complex, the target protein can be cleaved from the prodomain protein by activation of the subtilisin variant with the introduction of an activating ion solution.

pR58-GB = assay: binding and cleavage of pR58-GB on immobilized S189 matrix
Procedure: The binding and catalytic properties of processing subtilisin allows them to be used as both the affinity matrix and processing protease for purification of proteins tagged with the pR58 sequence.
An E. coli cell lysate containing pR58-GB was passed over the matrix containing immobilized S189. Cleavage of the bound fusion protein then was then effected either by addition of a triggering anion (e.g. 10 mM KF) or by extended incubation (e.g. 18 hours at pH 7.2) as shown in FIG. 6. After cleavage the pure, processed protein was washed off the matrix while the cognate prodomain remains tightly bound to subtilisin on the matrix. Multiple rounds of purification can be affected by stripping the pR58 from the S189 column at pH 2.1 and re-equilibrating the column at neutral pH. High stable and facile-folding mutants such as those listed in the Table 1 (FIG. 3) of Processing Subtilisin are required for column recycling.

671 (pR58FKAM-GB) = assay: fluoride-triggered cleavage/elution of 671 fusion protein on S189HT1 column; conditions: cleavage/elution by 0.1M KF, FIG. 14
Procedure: (10 μl of 1 ml fraction 1; ˜7 μg total) • Lane 6: cleavage/elution by 0.1 M KF. (10 μl of 1 ml fraction 2; ˜3 μg total) • Lane 7: strip by 0.1 M H3PO4 (10 μl of 1 ml fraction 1; ˜10 μg total in both bands combined).

B1: S189: processing subtilisin with D32A mutation (protein, UniProt P00782 108-382, looked up, variant D32A)
Subtilisin BPN': AQSVPYGVSQIKAPALHSQGYTGSNVKVAVIASGIDSSHPDLKVAGGASMVPSETNPFQDNNSHGTHVAGTVAALNNSIGVLGVAPSASLYAVKVLGADGSGQYSWIINGIEWAIANNMDVINMSLGGPSGSAALKAAVDKAVASGVVVVAAAGNEGTSGSSSTVGYPGKYPSVIAVGAVDSSNQRASFSSVGPELDVMAPGVSIQSTLPGNKYGAYNGTSMASPHVAGAAALILSKHPNWTNTQVRSSLENTTTKLGDSFYYGKGLINVQAAAQ
Fusion protein pR58-GB; pH 7.2, 23 C
  Rate: 0.18 h⁻¹
Fusion protein pR58-GB; [Cl] 0 M
  Rate vs. [Cl]: 0.97 h⁻¹
Fusion protein pR58-GB; [Cl] 0.5 M
  Rate vs. [Cl]: 5 h⁻¹
Fusion protein pR58-GB; [F] 0 mM, pH 7.2, 23 C
  Rate vs. [F]: 0.003 min⁻¹
Fusion protein pR58-GB; [F] 1 mM, pH 7.2, 23 C
  Rate vs. [F]: 0.018 min⁻¹
Fusion protein pR58-GB; [F] 10 mM, pH 7.2, 23 C
  Rate vs. [F]: 0.14 min⁻¹
Fusion protein pR58-GB; [F] 100 mM, pH 7.2, 23 C
  Rate vs. [F]: 0.8 min⁻¹
Fusion protein pR58-GB; pH 5.7
  Rate vs. pH: 0.135 hr^−1
Fusion protein pR58-GB; pH 7.2
  Rate vs. pH: 0.18 hr^−1
Fusion protein pR58-GB; pH 8.8
  Rate vs. pH: 0.97 hr^−1
Fusion protein pR58-GB; pH 10.0
  Rate vs. pH: 4 hr^−1
pR58-GB; FIG. 5
  rate of binding to the prodomain: rapid
pR58-GB; FIG. 6, a lag phase is evident
  half-time of cleavage: about four
671 (pR58FKAM-GB)
  cleavage reaction complete: ~90%
